Key:
[1] = target: HLA-DR2 (DRB1*1501), chimeric DRA1*0101:I-Eα and DRB1*1501:I-Eβ, as expressed in HLA-DR2 transgenic mice (human; mouse) (UniProt Q8BHN5); assay: cell-based or functional assay
[2] = target: HLA-B7 (B*0702), chimeric heavy chain with HLA-B*0702 α1 and α2 domains and H-2Kd murine α3 domain, (human; mouse), B*07:0; assay: cell-based or functional assay

Chain of UniProt Q8BHN5 (Q8BHN5 whole entry, stated change not applied): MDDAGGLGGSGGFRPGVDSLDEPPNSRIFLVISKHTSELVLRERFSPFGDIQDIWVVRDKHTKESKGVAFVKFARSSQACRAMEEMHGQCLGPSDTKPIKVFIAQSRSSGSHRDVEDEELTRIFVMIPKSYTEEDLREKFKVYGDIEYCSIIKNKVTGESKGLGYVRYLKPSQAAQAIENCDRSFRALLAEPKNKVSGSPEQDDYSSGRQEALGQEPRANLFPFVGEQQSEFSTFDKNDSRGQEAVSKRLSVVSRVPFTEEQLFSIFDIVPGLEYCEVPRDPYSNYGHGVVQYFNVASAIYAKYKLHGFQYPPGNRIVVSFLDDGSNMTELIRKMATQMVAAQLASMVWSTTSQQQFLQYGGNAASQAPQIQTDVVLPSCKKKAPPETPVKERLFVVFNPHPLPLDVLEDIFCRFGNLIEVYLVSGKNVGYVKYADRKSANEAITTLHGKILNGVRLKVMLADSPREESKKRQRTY

“PB2 548-564 peptide of influenza virus A/New York/348/2003 (H1N1)” showed an IFN-γ ELISpot at 10 µg/ml peptide, splenocytes of immunized HLA transgenic mice [1] of 96.
“PB2 524-540 peptide of influenza virus A/New York/348/2003 (H1N1)” showed an IFN-γ ELISpot at 10 µg/ml peptide, splenocytes of immunized HLA transgenic mice [1] of 151 and a lowest concentration of peptide giving positive ELISpot response [1] of 0.1 µg/mL.
Work on “PB1 328-344 peptide of influenza virus A/New York/348/2003 (H1N1)” yielded an IFN-γ ELISpot at 10 µg/ml peptide, splenocytes of immunized HLA transgenic mice [2] of 60 and a lowest concentration of peptide giving positive ELISpot response [2] of 10 µg/mL.
“NP 402-418 peptide of influenza virus A/New York/348/2003 (H1N1)” was tested, and the IFN-γ ELISpot at 10 µg/ml peptide, splenocytes of immunized HLA transgenic mice [1] was 207 and the lowest concentration of peptide giving positive ELISpot response [1] was 0.1 µg/mL.
For “PB2 500-516 peptide of influenza virus A/New York/348/2003 (H1N1)”, the IFN-γ ELISpot at 10 µg/ml peptide, splenocytes of immunized HLA transgenic mice [2] was 184 and the lowest concentration of peptide giving positive ELISpot response [2] was 0.1 µg/mL.
For “PB1 358-374 peptide of influenza virus A/New York/348/2003 (H1N1)”, the IFN-γ ELISpot at 10 µg/ml peptide, splenocytes of immunized HLA transgenic mice [1] was 84 and the lowest concentration of peptide giving positive ELISpot response [1] was 0.1 µg/mL.
Substance “M1 169-185 peptide of influenza virus A/New York/348/2003 (H1N1)” has an IFN-γ ELISpot at 10 µg/ml peptide, splenocytes of immunized HLA transgenic mice [1] of 56 and a lowest concentration of peptide giving positive ELISpot response [1] of 0.1 µg/mL.
With “NP 133-149 peptide of influenza virus A/New York/348/2003 (H1N1)” the IFN-γ ELISpot at 10 µg/ml peptide, splenocytes of immunized HLA transgenic mice [1] was 238 and the lowest concentration of peptide giving positive ELISpot response [1] was 0.1 µg/mL.
“NP 408-424 peptide of influenza virus A/New York/348/2003 (H1N1)” was tested, and the IFN-γ ELISpot at 10 µg/ml peptide, splenocytes of immunized HLA transgenic mice [1] was 110 and the lowest concentration of peptide giving positive ELISpot response [1] was 1 µg/mL.
In the case of “PB1 560-576 peptide of influenza virus A/New York/348/2003 (H1N1)”, the IFN-γ ELISpot at 10 µg/ml peptide, splenocytes of immunized HLA transgenic mice [1] is reported as 194 and the lowest concentration of peptide giving positive ELISpot response [1] is reported as 0.1 µg/mL.
“PB1 554-570 peptide of influenza virus A/New York/348/2003 (H1N1)” was tested, and the IFN-γ ELISpot at 10 µg/ml peptide, splenocytes of immunized HLA transgenic mice [1] was 109 and the lowest concentration of peptide giving positive ELISpot response [1] was 1 µg/mL.
“PB1 352-368 peptide of influenza virus A/New York/348/2003 (H1N1)” showed an IFN-γ ELISpot at 10 µg/ml peptide, splenocytes of immunized HLA transgenic mice [1] of 52 and a lowest concentration of peptide giving positive ELISpot response [1] of 1 µg/mL.
“PB1 519-535 peptide of influenza virus A/New York/348/2003 (H1N1)” gave an IFN-γ ELISpot at 10 µg/ml peptide, splenocytes of immunized HLA transgenic mice [1] of 75 and a lowest concentration of peptide giving positive ELISpot response [1] of 0.1 µg/mL.
“PB2 630-646 peptide of influenza virus A/New York/348/2003 (H1N1)” showed an IFN-γ ELISpot at 10 µg/ml peptide, splenocytes of immunized HLA transgenic mice [1] of 104 and a lowest concentration of peptide giving positive ELISpot response [1] of 0.1 µg/mL.
Substance “PB1 465-481 peptide of influenza virus A/New York/348/2003 (H1N1)” has an IFN-γ ELISpot at 10 µg/ml peptide, splenocytes of immunized HLA transgenic mice [1] of 231 and a lowest concentration of peptide giving positive ELISpot response [1] of 1 µg/mL.
In the case of “PB1 525-541 peptide of influenza virus A/New York/348/2003 (H1N1)”, the IFN-γ ELISpot at 10 µg/ml peptide, splenocytes of immunized HLA transgenic mice [1] is reported as 159 and the lowest concentration of peptide giving positive ELISpot response [1] is reported as 0.1 µg/mL.

— US20120294879A1, “CONSENSUS SEQUENCE FOR INFLUENZA A VIRUS” (priority 2009, published 2012)
